Reference: article PMC8967061, “Mechanism of Borrelia immune evasion by FhbA-related proteins” (PLoS Pathogens, 2022)
Where a chain is given by its changes, count along the chain named.

T1: BhFhbA Ile171Ala (Borrelia hermsii YOR, UniProt W5SB08 44-202, Ile171Ala)
T1 construct: FhbA of Borrelia hermsii strain YOR, residues 44-202 as the wild type construct, single alanine mutant; source: E. coli BL21 (DE), purified (Ni-NTA, size-exclusion chromatography)
T1 sequence (looked up): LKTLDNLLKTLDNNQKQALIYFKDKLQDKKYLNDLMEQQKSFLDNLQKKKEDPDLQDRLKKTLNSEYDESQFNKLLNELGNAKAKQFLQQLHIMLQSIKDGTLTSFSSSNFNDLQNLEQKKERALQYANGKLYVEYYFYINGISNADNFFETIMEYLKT

T2: BhFhbA Lys91Ala (Borrelia hermsii YOR, UniProt W5SB08 44-202, Lys91Ala)
T2 construct: FhbA of Borrelia hermsii strain YOR, residues 44-202 as the wild type construct, single alanine mutant; also called #3; source: E. coli BL21 (DE), purified (Ni-NTA, size-exclusion chromatography)
T2 sequence (looked up): T1 sequence (looked up) with K48A, A128I

T3: BhFhbA Glu198Ala (Borrelia hermsii YOR, UniProt W5SB08 44-202, Glu198Ala)
T3 construct: FhbA of Borrelia hermsii strain YOR, residues 44-202 as the wild type construct, single alanine mutant; also called #10; source: E. coli BL21 (DE), purified (Ni-NTA, size-exclusion chromatography)
T3 sequence (looked up): T1 sequence (looked up) with A128I, E155A

T4: BhFhbA Phe85Ala (Borrelia hermsii YOR, UniProt W5SB08 44-202, Phe85Ala)
T4 construct: FhbA of Borrelia hermsii strain YOR, residues 44-202 as the wild type construct, single alanine mutant; also called #1; source: E. coli BL21 (DE), purified (Ni-NTA, size-exclusion chromatography)
T4 sequence (looked up): T1 sequence (looked up) with F42A, A128I

T5: BhFhbA Met137Ala (Borrelia hermsii YOR, UniProt W5SB08 44-202, Met137Ala)
T5 construct: FhbA of Borrelia hermsii strain YOR, residues 44-202 as the wild type construct, single alanine mutant; also called #4; source: E. coli BL21 (DE), purified (Ni-NTA, size-exclusion chromatography)
T5 sequence (looked up): T1 sequence (looked up) with M94A, A128I

T6: BhFhbA Phe181Ala (Borrelia hermsii YOR, UniProt W5SB08 44-202, Phe181Ala)
T6 construct: FhbA of Borrelia hermsii strain YOR, residues 44-202 as the wild type construct, single alanine mutant; also called #9; source: E. coli BL21 (DE), purified (Ni-NTA, size-exclusion chromatography)
T6 sequence (looked up): T1 sequence (looked up) with A128I, F138A

T7: BhFhbA Asn153Ala (Borrelia hermsii YOR, UniProt W5SB08 44-202, Asn153Ala)
T7 construct: FhbA of Borrelia hermsii strain YOR, residues 44-202 as the wild type construct, single alanine mutant; source: E. coli BL21 (DE), purified (Ni-NTA, size-exclusion chromatography)
T7 sequence (looked up): T1 sequence (looked up) with N110A, A128I

T8: BhFhbA Glu178Ala (Borrelia hermsii YOR, UniProt W5SB08 44-202, Glu178Ala)
T8 construct: FhbA of Borrelia hermsii strain YOR, residues 44-202 as the wild type construct, single alanine mutant; source: E. coli BL21 (DE), purified (Ni-NTA, size-exclusion chromatography)
T8 sequence (looked up): T1 sequence (looked up) with A128I, E135A

T9: BhFhbA Asn88Ala (Borrelia hermsii YOR, UniProt W5SB08 44-202, Asn88Ala)
T9 construct: FhbA of Borrelia hermsii strain YOR, residues 44-202 as the wild type construct, single alanine mutant; also called #2; source: E. coli BL21 (DE), purified (Ni-NTA, size-exclusion chromatography)
T9 sequence (looked up): T1 sequence (looked up) with N45A, A128I

B1: Factor H binding protein A (FhbA) from Borrelia hermsii, wild type (domain or fragment)
chain: T1 sequence (looked up) with A128I
notes: FhbA of Borrelia hermsii strain YOR, without its leader peptide, residues 44-202; also called BhFhbA; Wild type BhFhbA; source: E. coli BL21 (DE), purified (Ni-NTA, size-exclusion chromatography)
B2: Factor H domains 19-20 (domain or fragment)
chain: DSTGKCGPPPPIDNGDITSFPLSVYAPASSVEYQCQNLYQLEGNKRITCRNGQWSEPPKCLHPCVISREIMENYNIALRWTAKQKLYSRTGESVEFVCKRGYRLSSRSHTLRTTCWDGKLEYPTCAKR
modifications: RED-tris-NTA dye label (in the MST assays only)
notes: human complement factor H, short consensus repeat domains 19-20, wild type; also called FH19-20; FH19-20 fragment

Assays:
Details in all cases: both partners purified
Factor H, full length = target: T10, Factor H, full length (human, UniProt P08603 19-1231, RED-tris-NTA dye label (in the MST assays only)); test: MST; full-length FH labelled with RED-tris-NTA dye, FhbA proteins titrated, PBS/0.025% Tween-20, 22 C
T10 construct: human complement factor H, 20 short consensus repeat domains; In the functional assays FH was that of whole blood or serum; also called FH; full-length FH; source: bought: Comptech (Complement Technologies), TX, USA

BhFhbA Ile171Ala = target: T1, BhFhbA Ile171Ala; test: MST; FH19-20 labelled with RED-tris-NTA dye (300 nM stock, mixed 1:1 with ligand), FhbA proteins titrated, PBS/0.025% Tween-20, 22 C
BhFhbA Lys91Ala = target: T2, BhFhbA Lys91Ala; test: as above
BhFhbA Glu198Ala = target: T3, BhFhbA Glu198Ala; test: as above
BhFhbA Phe85Ala = target: T4, BhFhbA Phe85Ala; test: as above
BhFhbA Met137Ala = target: T5, BhFhbA Met137Ala; test: as above
BhFhbA Phe181Ala = target: T6, BhFhbA Phe181Ala; test: as above
BhFhbA Asn153Ala = target: T7, BhFhbA Asn153Ala; test: as above
BhFhbA Glu178Ala = target: T8, BhFhbA Glu178Ala; test: as above
BhFhbA Asn88Ala = target: T9, BhFhbA Asn88Ala; test: as above
[1] = target: B1; test: as above

Row | Binder | Kd (Factor H, full length) [µM] | Kd (BhFhbA Ile171Ala) [µM] | Kd (BhFhbA Lys91Ala) [µM] | Kd (BhFhbA Glu198Ala) [µM] | Kd (BhFhbA Phe85Ala) [µM] | Kd (BhFhbA Met137Ala) [µM] | Kd (BhFhbA Phe181Ala) [µM] | Kd (BhFhbA Asn153Ala) [µM] | Kd (BhFhbA Glu178Ala) [µM] | Kd (BhFhbA Asn88Ala) [µM] | Kd [1] [µM]
1 | B1 | 0.03 | – | – | – | – | – | – | – | – | – | –
2 | B2 | – | 0.38 | 0.11 | 0.13 | 0.11 | 1 | 0.033 | 0.073 | 0.1 | 0.11 | 0.082
